Drawing on paper PMC11969024 (2025), this text covers enrichment for 112 variants.

First the molecules themselves.
B1: peptide HD2 (from tick evasin EVA4) / CCL1 (biotinylated, synthetic) (parent complex)
chain 1: EEDDYTAYAPLTCYFT
chain 2: KSMQVPFSRCCFSFAEQEIPLRAILCYRNTSSICSNEGLIFKLKRGKEACALDTVGWVQRHRKMLRHCPSKRK

The variants in this assay derive from B1.
For the variant chain 1 EEDDYTAYSPLTCYFT [chain 1 A9S], the enrichment is -1.71 log2 (difference from the parental peptide).

With chain 1 EEDDYTAYFPLTCYFT [chain 1 A9F], the enrichment is -5.95 log2 (difference from the parental peptide). Under chain 1 EEDDYTAYMPLTCYFT [chain 1 A9M] stands -5.21 log2 (difference from the parental peptide); under chain 1 EEDDYTAPAPLTCYFT [chain 1 Y8P], -6.09 log2 (difference from the parental peptide); under chain 1 EEDDYTAMAPLTCYFT [chain 1 Y8M], -7.72 log2 (difference from the parental peptide). Under chain 1 EEDDYTAYAPLTCYFE [chain 1 T16E] stands 1.93 log2 (difference from the parental peptide); under chain 1 EEDDYTAYAPLTCYFM [chain 1 T16M], 0.0746 log2 (difference from the parental peptide); under chain 1 EEDDYTAYAPLTCYFQ [chain 1 T16Q], 0.281 log2 (difference from the parental peptide). For chain 1 EEDDYTAYAPLTCYFP [chain 1 T16P], the enrichment is 1.67 log2 (difference from the parental peptide). Under chain 1 EEDDYTAYAPLTCYFA [chain 1 T16A] stands 1.5 log2 (difference from the parental peptide); under chain 1 EEDDYTAYAPLTCYFL [chain 1 T16L], -0.0976 log2 (difference from the parental peptide); under chain 1 EEDDYTAYAPLTCYFW [chain 1 T16W], -0.962 log2 (difference from the parental peptide). For chain 1 EEDDYTAYAPLTCYFS [chain 1 T16S] the value was 0.836 log2 (difference from the parental peptide); for chain 1 EEDDYTAYAPLTCYFK [chain 1 T16K], -1.01 log2 (difference from the parental peptide). Under chain 1 EEDDYTAYAPLTCYFH [chain 1 T16H] stands -0.232 log2 (difference from the parental peptide). For the variant chain 1 EEDDYTAYAPLTCYFG [chain 1 T16G], the enrichment was 1.22 log2 (difference from the parental peptide). For chain 1 EEDDYTAYAPLTCYFV [chain 1 T16V] the value was -0.26 log2 (difference from the parental peptide). Regarding chain 1 EEDDYTAYAPLTCYFI [chain 1 T16I], the enrichment was -0.756 log2 (difference from the parental peptide). Under chain 1 EEDDYTAYAPITCYFT [chain 1 L11I] stands 2.18 log2 (difference from the parental peptide). As to chain 1 EEDDYTAYAPGTCYFT [chain 1 L11G], the enrichment was -8.48 log2 (difference from the parental peptide). Consider chain 1 EEDDYTAYAPCTCYFT [chain 1 L11C], for which the enrichment is -1.68 log2 (difference from the parental peptide). For chain 1 EEDDYTAYAPFTCYFT [chain 1 L11F] the value was -4.27 log2 (difference from the parental peptide); for chain 1 EEDDYTAYAPDTCYFT [chain 1 L11D], -8.31 log2 (difference from the parental peptide). For chain 1 EEDDYTAYAPTTCYFT [chain 1 L11T] the value was -0.173 log2 (difference from the parental peptide); for chain 1 EEDDYTAYAPYTCYFT [chain 1 L11Y], 0.82 log2 (difference from the parental peptide). As for chain 1 EEDDYTAYAPVTCYFT [chain 1 L11V], the enrichment was 3.09 log2 (difference from the parental peptide).

Consider chain 1 EEDDYTAYAALTCYFT [chain 1 P10A], for which the enrichment was -5.62 log2 (difference from the parental peptide). As for chain 1 EEDDYTAYAGLTCYFT [chain 1 P10G], the enrichment was -5.87 log2 (difference from the parental peptide). For chain 1 EEDDYTAYALLTCYFT [chain 1 P10L] the value was -8.15 log2 (difference from the parental peptide); for chain 1 EEDDYTAYAMLTCYFT [chain 1 P10M], -6.14 log2 (difference from the parental peptide). For chain 1 EEDDYTAYAQLTCYFT [chain 1 P10Q] the value was -4.62 log2 (difference from the parental peptide). For chain 1 EEDDYGAYAPLTCYFT [chain 1 T6G] the value was 3.41 log2 (difference from the parental peptide); for chain 1 EEDDYDAYAPLTCYFT [chain 1 T6D], 4.62 log2 (difference from the parental peptide); for chain 1 EEDDYNAYAPLTCYFT [chain 1 T6N], 0.938 log2 (difference from the parental peptide).

With chain 1 EEDDYHAYAPLTCYFT [chain 1 T6H], the enrichment is -1.17 log2 (difference from the parental peptide). As to chain 1 EEDDYWAYAPLTCYFT [chain 1 T6W], the enrichment is 0.875 log2 (difference from the parental peptide). In the case of chain 1 EEDDYPAYAPLTCYFT [chain 1 T6P], the enrichment was -5.02 log2 (difference from the parental peptide). Under chain 1 EEDDYIAYAPLTCYFT [chain 1 T6I] stands -5.87 log2 (difference from the parental peptide). For chain 1 EEDDYYAYAPLTCYFT [chain 1 T6Y] the value was -1.82 log2 (difference from the parental peptide); for chain 1 EEDDITAYAPLTCYFT [chain 1 Y5I], -7.45 log2 (difference from the parental peptide); for chain 1 EEDDWTAYAPLTCYFT [chain 1 Y5W], 0.92 log2 (difference from the parental peptide).

As to chain 1 EEDDFTAYAPLTCYFT [chain 1 Y5F], the enrichment was -4.11 log2 (difference from the parental peptide). For chain 1 EEDDYTAYAPLTAYFT [chain 1 C13A] the value was -7.27 log2 (difference from the parental peptide); for chain 1 EEDDYTAYAPLTDYFT [chain 1 C13D], -7.39 log2 (difference from the parental peptide); for chain 1 EEDDYTAYAPLTRYFT [chain 1 C13R], -9.78 log2 (difference from the parental peptide). Under chain 1 EEDDYTAYAPLTTYFT [chain 1 C13T] stands -4.75 log2 (difference from the parental peptide); under chain 1 EEDDYTAYAPLTNYFT [chain 1 C13N], -5.11 log2 (difference from the parental peptide); under chain 1 EEDDYTAYAPLTVYFT [chain 1 C13V], -4.73 log2 (difference from the parental peptide). For chain 1 EEDDYTAYAPLTPYFT [chain 1 C13P] the value was -6.51 log2 (difference from the parental peptide). On to chain 1 EEDDYTAYAPLTEYFT [chain 1 C13E], for which the enrichment is -6.35 log2 (difference from the parental peptide). For chain 1 EEDDYTAYAPLTYYFT [chain 1 C13Y] the value was -5.39 log2 (difference from the parental peptide). Under chain 1 EETDYTAYAPLTCYFT [chain 1 D3T] stands -2.84 log2 (difference from the parental peptide). For chain 1 EEGDYTAYAPLTCYFT [chain 1 D3G] the value was -3.36 log2 (difference from the parental peptide); for chain 1 EEIDYTAYAPLTCYFT [chain 1 D3I], -4.23 log2 (difference from the parental peptide); for chain 1 EEADYTAYAPLTCYFT [chain 1 D3A], -2.56 log2 (difference from the parental peptide). Turning to chain 1 EEWDYTAYAPLTCYFT [chain 1 D3W], the enrichment was -3.57 log2 (difference from the parental peptide).

In the case of chain 1 EENDYTAYAPLTCYFT [chain 1 D3N], the enrichment was -2.85 log2 (difference from the parental peptide). With chain 1 EEVDYTAYAPLTCYFT [chain 1 D3V], the enrichment is -3.25 log2 (difference from the parental peptide). Under chain 1 EEYDYTAYAPLTCYFT [chain 1 D3Y] stands -2.01 log2 (difference from the parental peptide); under chain 1 EESDYTAYAPLTCYFT [chain 1 D3S], -3.39 log2 (difference from the parental peptide). Under chain 1 EEFDYTAYAPLTCYFT [chain 1 D3F] stands -4 log2 (difference from the parental peptide); under chain 1 EEDDYTIYAPLTCYFT [chain 1 A7I], -3.58 log2 (difference from the parental peptide).

chain 1 EEDDYTRYAPLTCYFT [chain 1 A7R]: the enrichment is 2.51 log2 (difference from the parental peptide). Under chain 1 EEDDYTGYAPLTCYFT [chain 1 A7G] stands -2.66 log2 (difference from the parental peptide); under chain 1 EEDDYTEYAPLTCYFT [chain 1 A7E], 0.457 log2 (difference from the parental peptide).

Consider chain 1 EEDDYTAYAPLGCYFT [chain 1 T12G], for which the enrichment was -9.53 log2 (difference from the parental peptide).

For the variant chain 1 EEDDYTAYAPLACYFT [chain 1 T12A], the enrichment was -2.04 log2 (difference from the parental peptide). Regarding chain 1 EEDDYTAYAPLICYFT [chain 1 T12I], the enrichment is -1.49 log2 (difference from the parental peptide).

chain 1 EEDDYTAYAPLNCYFT [chain 1 T12N]: the enrichment is 1.57 log2 (difference from the parental peptide).

For the variant chain 1 EEDDYTAYAPLECYFT [chain 1 T12E], the enrichment is -2.48 log2 (difference from the parental peptide). For chain 1 EEDDYTAYAPLWCYFT [chain 1 T12W] the value was 0.647 log2 (difference from the parental peptide); for chain 1 ESDDYTAYAPLTCYFT [chain 1 E2S], -2.78 log2 (difference from the parental peptide); for chain 1 EVDDYTAYAPLTCYFT [chain 1 E2V], -1.95 log2 (difference from the parental peptide). For chain 1 EADDYTAYAPLTCYFT [chain 1 E2A] the value was -1.98 log2 (difference from the parental peptide); for chain 1 ELDDYTAYAPLTCYFT [chain 1 E2L], -2.22 log2 (difference from the parental peptide). For chain 1 EQDDYTAYAPLTCYFT [chain 1 E2Q] the value was -3.13 log2 (difference from the parental peptide). In the case of chain 1 IEDDYTAYAPLTCYFT [chain 1 E1I], the enrichment is -1.54 log2 (difference from the parental peptide). For the variant chain 1 QEDDYTAYAPLTCYFT [chain 1 E1Q], the enrichment was -1.24 log2 (difference from the parental peptide). For chain 1 YEDDYTAYAPLTCYFT [chain 1 E1Y] the value was -0.577 log2 (difference from the parental peptide); for chain 1 TEDDYTAYAPLTCYFT [chain 1 E1T], -1.42 log2 (difference from the parental peptide); for chain 1 WEDDYTAYAPLTCYFT [chain 1 E1W], -2.32 log2 (difference from the parental peptide). For chain 1 FEDDYTAYAPLTCYFT [chain 1 E1F] the value was -2.45 log2 (difference from the parental peptide). For chain 1 LEDDYTAYAPLTCYFT [chain 1 E1L] the value was -1.81 log2 (difference from the parental peptide); for chain 1 PEDDYTAYAPLTCYFT [chain 1 E1P], -3.07 log2 (difference from the parental peptide).

chain 1 KEDDYTAYAPLTCYFT [chain 1 E1K]: the enrichment is -5.3 log2 (difference from the parental peptide).

In the case of chain 1 DEDDYTAYAPLTCYFT [chain 1 E1D], the enrichment is 2.01 log2 (difference from the parental peptide). For chain 1 MEDDYTAYAPLTCYFT [chain 1 E1M] the value was -0.363 log2 (difference from the parental peptide); for chain 1 REDDYTAYAPLTCYFT [chain 1 E1R], -4.21 log2 (difference from the parental peptide); for chain 1 HEDDYTAYAPLTCYFT [chain 1 E1H], -2.16 log2 (difference from the parental peptide). Under chain 1 EEDDYTAYAPLTCYYT [chain 1 F15Y] stands 1.84 log2 (difference from the parental peptide); under chain 1 EEDDYTAYAPLTCYVT [chain 1 F15V], 2.71 log2 (difference from the parental peptide); under chain 1 EEDDYTAYAPLTCYKT [chain 1 F15K], -1.11 log2 (difference from the parental peptide). Under chain 1 EEDDYTAYAPLTCYET [chain 1 F15E] stands -0.986 log2 (difference from the parental peptide); under chain 1 EEDDYTAYAPLTCYTT [chain 1 F15T], 1.39 log2 (difference from the parental peptide); under chain 1 EEDDYTAYAPLTCYHT [chain 1 F15H], 2.15 log2 (difference from the parental peptide). As for chain 1 EEDDYTAYAPLTCYLT [chain 1 F15L], the enrichment was 2.03 log2 (difference from the parental peptide). With chain 1 EEDDYTAYAPLTCYCT [chain 1 F15C], the enrichment was -6.07 log2 (difference from the parental peptide).

chain 1 EEDDYTAYAPLTCYWT [chain 1 F15W]: the enrichment is -0.244 log2 (difference from the parental peptide).

chain 1 EEDDYTAYAPLTCTFT [chain 1 Y14T]: the enrichment was -6.17 log2 (difference from the parental peptide). Take chain 1 EEDDYTAYAPLTCLFT [chain 1 Y14L]: the enrichment is -6.02 log2 (difference from the parental peptide). Under chain 1 EEDDYTAYAPLTCQFT [chain 1 Y14Q] stands -5.69 log2 (difference from the parental peptide).

With chain 1 EEDDYTAYAPLTCWFT [chain 1 Y14W], the enrichment is -0.649 log2 (difference from the parental peptide). For chain 1 EEDDYTAYAPLTCMFT [chain 1 Y14M], the enrichment is -4.74 log2 (difference from the parental peptide). Under chain 1 EEDDYTAYAPLTCRFT [chain 1 Y14R] stands -7.32 log2 (difference from the parental peptide); under chain 1 EEDDYTAYAPLTCVFT [chain 1 Y14V], -4.97 log2 (difference from the parental peptide). Turning to chain 1 EEDPYTAYAPLTCYFT [chain 1 D4P], the enrichment is -4.71 log2 (difference from the parental peptide). For chain 1 EEDSYTAYAPLTCYFT [chain 1 D4S] the value was -6.83 log2 (difference from the parental peptide); for chain 1 EEDYYTAYAPLTCYFT [chain 1 D4Y], -4.35 log2 (difference from the parental peptide); for chain 1 EEDNYTAYAPLTCYFT [chain 1 D4N], -6.19 log2 (difference from the parental peptide). Under chain 1 EEDAYTAYAPLTCYFT [chain 1 D4A] stands -7.31 log2 (difference from the parental peptide); under chain 1 EEDLYTAYAPLTCYFT [chain 1 D4L], -6.1 log2 (difference from the parental peptide). Under chain 1 EEDWYTAYAPLTCYFT [chain 1 D4W] stands -2.57 log2 (difference from the parental peptide).
